We go through one molecule from patent US20210115143A1.

The target in the assay is hPD-L1-Fc fusion protein (made in the filing, Example 1) (human) (UniProt Q9NZQ7). Put plainly: SPR, Biacore X100, hPD-L1-Fc on CM5 chip, antibody in solution, 25 C.
hPD-L1-Fc fusion protein (made in the filing, Example 1) (human), sequence (Q9NZQ7 19-238 limits assumed): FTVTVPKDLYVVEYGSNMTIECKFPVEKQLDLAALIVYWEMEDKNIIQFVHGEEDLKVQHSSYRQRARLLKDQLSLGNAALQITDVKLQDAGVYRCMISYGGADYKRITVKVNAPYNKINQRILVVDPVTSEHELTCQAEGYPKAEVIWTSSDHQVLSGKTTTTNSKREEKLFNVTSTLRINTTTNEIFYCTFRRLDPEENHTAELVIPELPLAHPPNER

B1: B50-6 mAb (anti-hPD-L1, human IgG1, lambda) (antibody, part only; not given: human IgG1 and lambda constants, part only)
heavy, part: QVQLQQSGPGLVKPSQTLSLTCAISGDSVSSTKAAWYWIRQSPSRGLEWLGRTYFRSKWYNDYADSVKSRLTINPDTSKNQFSLQLKSVSPEDTAVYYCARGQYTAFDIWGQGTMVTVSS
light, part: QVQLVQSGAEVKKPASSVKVSCTASGGSFSTYAISWVRQAPGQGLEWMGGIIPIFGTTKYAQRFQGRVTITADESTTTAYMELSSLISDDTALYYCTTSRGFSYGWFDYWGQGTLVTVSS
Turning to B1, the Kd is 81.9 nM, the koff was determined as 0.0137 s⁻¹ and the kon came out at 167000 M⁻¹ s⁻¹.
